Experimental data: article PMC9129000, “RADA-dependent branch migration has a predominant role in plant mitochondria and its defect leads to mtDNA instability and cell cycle arrest”
Values belong to the molecule of their own block, whether it stands above or below them.

Assays:
[1] = molecular target: Arabidopsis RADA recombinant protein (His-tagged, WT) (Arabidopsis thaliana); assay: dynamic light scattering; protein fraction of gel filtration peak 2 (the smaller oligomer)
RADA [2] = molecular target: T1, RADA (Arabidopsis thaliana, UniProt F4K8X8 49-627); assay: competition; competes as efficiently as homologous 30-mer; 20 mM Tris-HCl pH 7.5, 50 mM KCl, 5 mM MgCl2, 0.5 mM EDTA, 10% glycerol, 1 mM DTT, protease inhibitors; 20 C, 20 min; 8 or 4.5% PAGE in TBE at 4 C; settings: protein: recombinant; tags: N-terminal His (pET28a); chain copies: 6; single strand
T1 sequence: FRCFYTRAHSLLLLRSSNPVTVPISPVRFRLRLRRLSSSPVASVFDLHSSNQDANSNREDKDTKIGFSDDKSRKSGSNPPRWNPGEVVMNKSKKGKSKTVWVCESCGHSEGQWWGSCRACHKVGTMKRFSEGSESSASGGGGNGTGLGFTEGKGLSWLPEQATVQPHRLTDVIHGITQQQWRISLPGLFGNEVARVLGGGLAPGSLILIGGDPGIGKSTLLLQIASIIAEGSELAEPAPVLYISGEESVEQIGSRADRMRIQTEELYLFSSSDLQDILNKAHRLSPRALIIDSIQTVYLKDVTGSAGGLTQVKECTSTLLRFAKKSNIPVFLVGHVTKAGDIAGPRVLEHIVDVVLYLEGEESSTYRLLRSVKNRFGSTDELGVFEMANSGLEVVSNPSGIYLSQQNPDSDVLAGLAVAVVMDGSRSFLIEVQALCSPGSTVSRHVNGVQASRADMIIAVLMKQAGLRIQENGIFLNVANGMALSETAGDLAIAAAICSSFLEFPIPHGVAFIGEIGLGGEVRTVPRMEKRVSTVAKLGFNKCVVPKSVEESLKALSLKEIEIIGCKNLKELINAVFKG

RADA [3] = molecular target: T1, RADA; assay: EMSA; 20 mM Tris-HCl pH 7.5, 50 mM KCl, 5 mM MgCl2, 0.5 mM EDTA, 10% glycerol, 1 mM DTT, protease inhibitors; 20 C, 20 min; 8 or 4.5% PAGE in TBE at 4 C; settings: protein: recombinant; tags: N-terminal His (pET28a); chain copies: 6; label: 5'-32P; single strand
RADA [4] = molecular target: T1, RADA; assay: EMSA; probe and homologous competitor; 20 mM Tris-HCl pH 7.5, 50 mM KCl, 5 mM MgCl2, 0.5 mM EDTA, 10% glycerol, 1 mM DTT, protease inhibitors; 20 C, 20 min; 8 or 4.5% PAGE in TBE at 4 C; settings: protein: recombinant; tags: N-terminal His (pET28a); chain copies: 6; label: 5'-32P as probe; single strand

stoichiometry N [1]: 6
Molecule: Arabidopsis RADA recombinant protein (His-tagged, WT) (enzyme)

Molecule: TTTTTTTTTTTTTTTTTTTTTTTTTTTTTT (ssDNA) [poly-dT 30-mer]
binding result (RADA [2]): binds

B1: EMSA ssDNA (ssDNA)
DNA: GACGCTGCCGAATTCTACCAGTGCCTTGCTAGGACATCTTTGCCCACCTGCAGGTTCACCC
binding result (RADA [3]): binds

Molecule: AGTCAGTCAGTCAGTCAGTCAGTCAGTCAG (ssDNA) [EMSA 30-mer 7x[AGTC]AG]
binding result (RADA [4]): binds
